Laboratory results taken from paper PMC2734569, “Functional mapping of the fission yeast DNA polymerase δ B-subunit Cdc1 by site-directed and random pentapeptide insertion mutagenesis” (BMC Molecular Biology, 2009).
Substitutions are numbered along the chain they refer to.

Assays:
Assay in all cases: two-hybrid; LexA-Cdc1 bait (pBTM116 or pBTM116BN) with Gal4 activation domain-Cdc27 prey (pGAD2F-Cdc27) in S. cerevisiae CTY10-5d; ONPG liquid culture beta-galactosidase assay, mean of triplicates, as percent of wild-type Cdc1
Conditions in all cases: partners not purified
[1] = target: T1, Cdc1-A8 (Schizosaccharomyces pombe, UniProt P87324 1-462, Pro374Ala)
T1 construct: Cdc1, S. pombe, point mutant; source: yeast two-hybrid fusion, in S. cerevisiae CTY10-5d
T1 sequence (looked up): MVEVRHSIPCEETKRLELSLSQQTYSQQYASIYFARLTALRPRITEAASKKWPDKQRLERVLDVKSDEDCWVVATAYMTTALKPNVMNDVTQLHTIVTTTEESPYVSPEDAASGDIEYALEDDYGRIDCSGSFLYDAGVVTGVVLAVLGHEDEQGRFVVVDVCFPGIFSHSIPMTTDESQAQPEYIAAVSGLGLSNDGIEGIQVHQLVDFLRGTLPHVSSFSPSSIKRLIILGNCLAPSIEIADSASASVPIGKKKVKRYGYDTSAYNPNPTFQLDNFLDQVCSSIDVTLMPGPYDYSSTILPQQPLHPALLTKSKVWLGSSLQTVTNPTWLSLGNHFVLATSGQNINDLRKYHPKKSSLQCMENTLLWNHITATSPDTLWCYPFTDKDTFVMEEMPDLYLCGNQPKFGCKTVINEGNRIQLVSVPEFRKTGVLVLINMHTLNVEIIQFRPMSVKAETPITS

[2] = target: T2, Cdc1-J2 (Schizosaccharomyces pombe, UniProt P87324 1-462, Tyr-ArgGlyThrProTyr-Ser)
T2 construct: Cdc1, S. pombe, with a pentapeptide inserted after residue 25; also called J18; J20; source: yeast two-hybrid fusion, in S. cerevisiae CTY10-5d
T2 sequence (looked up): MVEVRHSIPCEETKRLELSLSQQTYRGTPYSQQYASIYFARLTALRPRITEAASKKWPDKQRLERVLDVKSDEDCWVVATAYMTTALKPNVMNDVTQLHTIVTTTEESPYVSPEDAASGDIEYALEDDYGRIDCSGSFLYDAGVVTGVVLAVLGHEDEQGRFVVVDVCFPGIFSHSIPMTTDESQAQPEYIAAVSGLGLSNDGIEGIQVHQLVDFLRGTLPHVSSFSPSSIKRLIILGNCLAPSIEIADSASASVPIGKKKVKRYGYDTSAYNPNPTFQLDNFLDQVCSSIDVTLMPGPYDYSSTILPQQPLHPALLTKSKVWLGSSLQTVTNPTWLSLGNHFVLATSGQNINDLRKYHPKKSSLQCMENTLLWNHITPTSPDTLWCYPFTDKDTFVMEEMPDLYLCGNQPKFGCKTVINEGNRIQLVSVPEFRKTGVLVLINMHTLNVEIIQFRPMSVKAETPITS

[3] = target: T3, Cdc1-E5 (Schizosaccharomyces pombe, UniProt P87324 1-462, Val-MetGlyTyrProVal-Met)
T3 construct: Cdc1, S. pombe, with a pentapeptide inserted after residue 86; source: yeast two-hybrid fusion, in S. cerevisiae CTY10-5d
T3 sequence (looked up): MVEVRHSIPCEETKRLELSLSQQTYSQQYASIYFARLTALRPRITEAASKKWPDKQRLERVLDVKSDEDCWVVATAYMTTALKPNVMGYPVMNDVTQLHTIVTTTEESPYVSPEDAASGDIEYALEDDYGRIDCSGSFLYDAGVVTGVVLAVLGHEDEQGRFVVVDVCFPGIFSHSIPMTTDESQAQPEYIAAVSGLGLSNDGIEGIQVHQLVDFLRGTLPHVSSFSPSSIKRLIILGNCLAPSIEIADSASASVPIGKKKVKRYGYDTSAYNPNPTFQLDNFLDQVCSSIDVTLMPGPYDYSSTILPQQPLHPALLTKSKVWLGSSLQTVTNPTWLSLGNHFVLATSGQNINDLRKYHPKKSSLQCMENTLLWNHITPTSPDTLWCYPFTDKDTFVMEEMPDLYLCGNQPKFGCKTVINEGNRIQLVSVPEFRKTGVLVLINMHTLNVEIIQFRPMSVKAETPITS

[4] = target: T4, Cdc1-A10 (Schizosaccharomyces pombe, UniProt P87324 1-462, Asn328Ala | Pro329Ala)
T4 construct: Cdc1, S. pombe, double point mutant (A5 and A6 combined); source: yeast two-hybrid fusion, in S. cerevisiae CTY10-5d
T4 sequence (looked up): T1 sequence (looked up) with N328A, P329A, A374P

B1: Cdc27 (fission yeast DNA polymerase delta C-subunit) (natural protein, Schizosaccharomyces pombe, UniProt P30261 1-372, looked up)
chain: MEEWRNFLDIKVINESSLVTVDNLSLQLDISSEKAQEYLNMFYQGNDFLYPIYLIHGQPIDDEINLEIDEESQPISNFPVLQYILCDKSSLQEKQSRLKSGYKTVIFALSSAPLSDFDELLPAVYEIREKDVLYKKEDADKYGFIFNENSVPRVLKKAPSTHSPQLSVPSKTSTIDKTDTRSTEKTKGKDIFSNARNQKGNSSRKNKKAPLENHKEKEPLLPKEEKLSEQAKRERDDLKNIMQLEDESVSTTSVHDSEDDNLDSNNFQLEIGTEAKSAAPDEPQEIIKSVSGGKRRGKRKVKKYATTKDEEGFLVTKEEEVWESFSEDENISTGTSNVVRNKPTTVNIATKKKNTAQSKPQQKSIMSFFGKK
notes: DNA polymerase delta C-subunit Cdc27, S. pombe; prey plasmid pGAD2F-Cdc27; also called pGAD2F-Cdc27; source: yeast two-hybrid fusion, in S. cerevisiae CTY10-5d
- two-hybrid beta-galactosidase activity, % of wild-type Cdc1 [1]: 8%
- two-hybrid beta-galactosidase activity, % of wild-type Cdc1 [2]: < 1%
- two-hybrid beta-galactosidase activity, % of wild-type Cdc1 [3]: 88%
- two-hybrid beta-galactosidase activity, % of wild-type Cdc1 [4]: 72%
